The record followed here is paper PMC4721541 (Bioscience Reports, 2015).

First the molecules themselves.
B1: Erv1 (essential for respiration and viability 1), wild type (enzyme, S. cerevisiae, UniProt P27882 1-189, looked up)
chain: MKAIDKMTDNPPQEGLSGRKIIYDEDGKPCRSCNTLLDFQYVTGKISNGLKNLSSNGKLAGTGALTGEASELMPGSRTYRKVDPPDVEQLGRSSWTLLHSVAASYPAQPTDQQKGEMKQFLNIFSHIYPCNWCAKDFEKYIRENAPQVESREELGRWMCEAHNKVNKKLRKPKFDCNFWEKRWKDGWDE
notes: Erv1, Saccharomyces cerevisiae, FAD-dependent thiol oxidase, 189 amino acids, full length; Construct in pET24a(+) (NdeI/XhoI); also called WT Erv1; WT; source: E. coli Rosetta-gami 2, purified (Ni2+ resin, gel filtration)
B2: Erv1 W179F (enzyme, S. cerevisiae, UniProt P27882 1-189, looked up)
chain: MKAIDKMTDNPPQEGLSGRKIIYDEDGKPCRSCNTLLDFQYVTGKISNGLKNLSSNGKLAGTGALTGEASELMPGSRTYRKVDPPDVEQLGRSSWTLLHSVAASYPAQPTDQQKGEMKQFLNIFSHIYPCNWCAKDFEKYIRENAPQVESREELGRWMCEAHNKVNKKLRKPKFDCNFFEKRWKDGWDE
notes: Erv1, Saccharomyces cerevisiae, 189 amino acids, full length, with W179F; Made by site-directed mutagenesis on the construct of m1; source: E. coli Rosetta-gami 2, purified (Ni2+ resin, gel filtration)
B3: Erv1 W157F (enzyme, S. cerevisiae, UniProt P27882 1-189, looked up)
chain: MKAIDKMTDNPPQEGLSGRKIIYDEDGKPCRSCNTLLDFQYVTGKISNGLKNLSSNGKLAGTGALTGEASELMPGSRTYRKVDPPDVEQLGRSSWTLLHSVAASYPAQPTDQQKGEMKQFLNIFSHIYPCNWCAKDFEKYIRENAPQVESREELGRFMCEAHNKVNKKLRKPKFDCNFWEKRWKDGWDE
notes: Erv1, Saccharomyces cerevisiae, 189 amino acids, full length, with W157F; Made by site-directed mutagenesis on the construct of m1; source: E. coli Rosetta-gami 2, purified (Ni2+ resin, gel filtration)
B4: Erv1 W132F (enzyme, S. cerevisiae, UniProt P27882 1-189, looked up)
chain: MKAIDKMTDNPPQEGLSGRKIIYDEDGKPCRSCNTLLDFQYVTGKISNGLKNLSSNGKLAGTGALTGEASELMPGSRTYRKVDPPDVEQLGRSSWTLLHSVAASYPAQPTDQQKGEMKQFLNIFSHIYPCNFCAKDFEKYIRENAPQVESREELGRWMCEAHNKVNKKLRKPKFDCNFWEKRWKDGWDE
notes: Erv1, Saccharomyces cerevisiae, 189 amino acids, full length, with W132F; Made by site-directed mutagenesis on the construct of m1; source: E. coli Rosetta-gami 2, purified (Ni2+ resin, gel filtration)
B5: Erv1 W95F (enzyme, S. cerevisiae, UniProt P27882 1-189, looked up)
chain: MKAIDKMTDNPPQEGLSGRKIIYDEDGKPCRSCNTLLDFQYVTGKISNGLKNLSSNGKLAGTGALTGEASELMPGSRTYRKVDPPDVEQLGRSSFTLLHSVAASYPAQPTDQQKGEMKQFLNIFSHIYPCNWCAKDFEKYIRENAPQVESREELGRWMCEAHNKVNKKLRKPKFDCNFWEKRWKDGWDE
notes: Erv1, Saccharomyces cerevisiae, 189 amino acids, full length, with W95F; Made by site-directed mutagenesis on the construct of m1; source: E. coli Rosetta-gami 2, purified (Ni2+ resin, gel filtration)
B6: Erv1 W187F (enzyme, S. cerevisiae, UniProt P27882 1-189, looked up)
chain: MKAIDKMTDNPPQEGLSGRKIIYDEDGKPCRSCNTLLDFQYVTGKISNGLKNLSSNGKLAGTGALTGEASELMPGSRTYRKVDPPDVEQLGRSSWTLLHSVAASYPAQPTDQQKGEMKQFLNIFSHIYPCNWCAKDFEKYIRENAPQVESREELGRWMCEAHNKVNKKLRKPKFDCNFWEKRWKDGFDE
notes: Erv1, Saccharomyces cerevisiae, 189 amino acids, full length, with W187F; Made by site-directed mutagenesis on the construct of m1; source: E. coli Rosetta-gami 2, purified (Ni2+ resin, gel filtration)
B7: Erv1 W183F (enzyme, S. cerevisiae, UniProt P27882 1-189, looked up)
chain: MKAIDKMTDNPPQEGLSGRKIIYDEDGKPCRSCNTLLDFQYVTGKISNGLKNLSSNGKLAGTGALTGEASELMPGSRTYRKVDPPDVEQLGRSSWTLLHSVAASYPAQPTDQQKGEMKQFLNIFSHIYPCNWCAKDFEKYIRENAPQVESREELGRWMCEAHNKVNKKLRKPKFDCNFWEKRFKDGWDE
notes: Erv1, Saccharomyces cerevisiae, 189 amino acids, full length, with W183F; Made by site-directed mutagenesis on the construct of m1; FAD content 71% as purified; source: E. coli Rosetta-gami 2, purified (Ni2+ resin, gel filtration)

One data set deals with the molecule itself. The data set can be described thus: SEC; gel filtration on Superdex 200 10/30, 4°C, BAE (150 mM NaCl, 50 mM Tris/HCl, 1 mM EDTA, pH 7.4); oligomer state by elution position against the WT.
Regarding B1, the stoichiometry N – broadly, the number of molecules, sites or subunits per partner or assembly – came to 4.
Still for that read-out and setting: the figure for B2 is 4; for B3 it is 4.
Same read-out and setting: the figure for B4 is 4; for B5 it is 4; for B6 it is 4.

A further data set concerns the molecule itself. The data set can be described thus: SEC-MALS; multi-angle laser light scattering after Superdex 200 10/30 in buffer A (150 mM NaCl, 50 mM Tris/HCl, pH 7.4); DAWN EOS photometer, Optilab rEX refractor. In general terms: SEC sorts molecules by how far they enter the pores of the column.
B7: the “stoichiometry N” value came out at 2.
